Literature values as cited in PMC2744096.

Target: MLL (Homo sapiens) (UniProt Q03164)

Kd: 3 µM
Substance: CBP KIX (from UniProt Q92793)
